# Reference: PMC3462190, “A Peptidic Unconjugated GRP78/BiP Ligand Modulates the Unfolded Protein Response and Induces Prostate Cancer Cell Death” (PLoS ONE, 2012)
# Where no end group is shown, it is not given here.
# Experiments:
# BPH-1 cells = assay: Clonogenic assay; assay type: cell-based, Human; conditions: benign prostate cells, 19-mer vector vs control; at least three experiments
# Description: Figure 6 Selectivity of action of the Bag-1 peptide. A Amino acid sequence of the 19mer peptide and its deletion mutants. B GST pull-down assay performed incubating 400 µg of 22Rv.1 cell lysate and 25 µg of GST-fused deletion mutants of the 19mer peptide. After the pull-down experiment, Western blots were carried out with anti-GRP78/BiP and GST antibodies. C. Fluorescence polarization (FP) assays with a 10 nM FITC-labeled 7-mer Bag-1 peptide and dilutions of the GST-fused substrate binding domain of GRP78 in 60 µl of Tris-GSH buffer (50 mM Tris, 10 mM reduced glutathione and 0.1% BSA, pH 8.0). Triplicate samples were measured after 5 h of incubation at room temperature with an Infinite F-200 reader (Tecan) with excitation at 490 nm and emission at 535 nm. Binding constants were determined from three independent experiments using non-linear regression in Sigma Plot 10.0. D. Competition assays with a complex of 10 nM of FITC-labeled Bag-1 7-mer peptide and 0.75 mg/ml GST-fused GRP78 substrate binding domain was measured against a dilution series from 100 µM to 0.1 nM of wild-type Bag-1 7-mer peptide (filled line) or triple mutant peptide (dotted line) in 40 µl of Tris-GSH buffer. […] Fluorescence polarization was determined as described above and IC50 values were determined in Sigma Plot. […] The colonies were stained and quantified. […]
# GRP78/BiP = assay: Co-immunoprecipitation with endogenous GRP78/BiP; assay type: binding
# Description: 22Rv.1 cells were used for interaction studies of endogenous Bag-1 and GRP78/BiP, while for the in vivo interaction of the Bag-1 peptide and GRP78/BiP, HEK-293 cells were transfected with a plasmid encoding HA-tagged Bag-1 peptide. Twenty-four hours prior to the experiment, the cells in both cases were washed with phosphate buffered saline (PBS) and treated with 20 mM Dithiobis(succinimidyl propionate) (DSP) in PBS for 30 min at room temperature. The reaction was stopped with 20 mM Tris and the cells were lysed in 50 mM Tris-HCl pH 7.4, 120 mM NaCl, 1 mM EDTA, 0.4% NP40 and 1% protease inhibitor cocktail. Immunoprecipitation of GRP78/BiP was carried out overnight at 4°C with anti-GRP78 antibody coupled to sepharose A beads (Abcam, ab21685). Binding of endogenous Bag-1 or of HA-peptide was determined by Western blotting using a Bag-1 or an HA specific antibody.
# Figure 1 Bag-1 proteins interact with the molecular chaperone GRP78/BiP. A. The Bag-1 family of proteins binds GRP78/BiP. GST pull-down assay was performed incubating 5 µg each of GST-fused Bag-1 proteins with 400 µg of 22Rv.1 cell lysate. […]
# Figure 2 Identification of Bag-1 peptide interfering with the action of GRP78/BiP. […] Western blot analysis with an HA antibody to detected the Bag-1 mutants is shown. […] Thereafter luciferase activity was measured. […]
# [1] = system: ATPase domain of GRP78/BiP; assay: GST pull-down with ATPase domain of GRP78/BiP; assay type: binding; conditions: 10 µg GST-fused ATPase domain, lysate of HEK-293 cells; for the 68 amino acid peptide results not shown
Molecule,BPH-1 growth in clonogenic assay (BPH-1 cells),"in vivo interaction with GRP78/BiP (GRP78/BiP; 22Rv.1 cells, endogenous Bag-1)",interaction with ATPase domain of GRP78/BiP [1],"in vivo interaction with endogenous GRP78/BiP (GRP78/BiP; HEK-293 cells expressing HA-tagged Bag-1 peptide, DSP cross-linked)"
19-mer: Bag-1L 202–220 (TPLSALGIQDGCRVMLIGK; not fully specified),not growth inhibited,–,–,–
"Bag-1: cochaperone Bag-1, HA-tagged (pcDNA3.1-HA-Bag-1), or endogenous (protein, left off: HA, end not stated, kept, cochaperone Bag-1, HA-tagged (pcDNA3.1-HA-Bag-1), or endogenous) TPLSALGIQDGCRVMLIGKKNSPQEEVELKKLKHLEKSVEKIADQLEELNKELTGIQQGFLPKDLQAE",–,bind to GRP78/BiP in 22Rv.1 cells,interacted not only with the full length GRP78/BiP but also with its ATPase and SBD,–
"Bag-1 peptide: internal sequence of 68 amino acids of Bag-1 (Bag1-L 202–269), HA-tagged, expressed from pcDNA3 (also: HA tag, end not given here) TPLSALGIQDGCRVMLIGKKNSPQEEVELKKLKHLEKSVEKIADQLEELNKELTGIQQGFLPKDLQAE",–,–,interacted with both the SBD and ATPase binding domains of GRP78,interacted with endogenous GRP78/BiP protein
